B1: HDV Ribozyme (parent)
chain: GGCCGGCAUGGUCCCAGCCUCCUCGCUGGCGCCGGCUGGGCAACAUUCCGAGGGGACCGUCCCCUCGGUAAUGGCGAAUGGGACCCA

The variants in the data set derive from B1. The data set can be described thus: self-cleavage, relative activity (ratio to wild type); higher = more cleavage; co-transcriptional.
Regarding GGCCGGCAUGGUCCCAGCCUCCUCGCUGGCACCGGCUGGGCAACAUUCCGAGGGGACCGUCCCCUCGGUAAUGGCGUAUGGGACCCA [G31A A77U], the self-cleavage is 0.0906.

With GGCCGGCAUGGUCCGAGCCUCCUCGCUGGCGCCGGCUGGGCAACAUUCCGAGGGGACGGUCCCCUCGGUAAUGGCGAAUGGGACCCA [C15G C58G], the self-cleavage stood at 0.612.

GGCCGGCAUGGUCCCAGCCUCCUCGCUGGCGCCGGCUGGGCAACAUUCCGACGGGGCCGUCCCCUCGGUAAUGGCGAAUGGGACCCA [G52C A56G]: the self-cleavage amounted to 0.851.

Turning to GGCCGGCAUGGUCUCAGCCUCCUCGCUGGCGCCGGCUGGGCGACAUUCCGAGGGGACCGUCCCCUCGGUAAUGGCGAAUGGGACCCA [C14U A42G], the self-cleavage worked out at 0.959.

GGCCGGCAUGGUCCCAGCCUCCUCGCGGGCGCCGGCUGGGCAACAUUCUGAGGGGACCGUCCCCUCGGUAAUGGCGAAUGGGACCCA [U27G C49U]: the self-cleavage turned out to be 0.957.

Consider GGCCGGCAUGGUCCCUGCCUCCUCGCUGGCGCCGGCUGGGCAACAUUCCGAGGGGACCGUCCCCUCGGUAAUAGCGAAUGGGACCCA [A16U G73A], for which the self-cleavage came to 0.222.

As for GGCCGGCAUGGUCCCAGCCCCCUCGCUGGCGCCGGCUGGGCAACAUUCCGAGGGGACCGUCCACUCGGUAAUGGCGAAUGGGACCCA [U20C C63A], the self-cleavage came out at 0.0898.

On to GGCCGGCAUGGUCCCAGCCUCCUCGCUGGCGCCGGCUGGGCAACAUUCGGAGGGGACCGUCCCCCCGGUAAUGGCGAAUGGGACCCA [C49G U65C], for which the self-cleavage amounted to 0.675.

GGCCGGCAUGGUCCCAGCCUCCUCGCUGGCGCCGGCUGGGCAACAUUCCGAGGGGACCCUCCCCUCGGUAAUGGCGAUUGGGACCCA [G59C A78U]: the self-cleavage turned out to be 0.155.

On to GGCCGGCAUGGUCCCAGCCUCCUCGCUGGCGCCGGCUGUGCAACAUUCCGAGGGGACCGUCGCCUCGGUAAUGGCGAAUGGGACCCA [G39U C62G], for which the self-cleavage is 0.408.

Take GGCCGGCAUGGUCCCAGCCUCCUCGCGGGCGCCGGCUGGGCAACAUUCCUAGGGGACCGUCCCCUCGGUAAUGGCGAAUGGGACCCA [U27G G50U]: the self-cleavage turned out to be 0.88.

With GGCCGGCAUGGUCCCAGCCUCCUCGCUGGCGCCGGCUGGGCAACAUUCCGAGGGGCCCGUCCCCUCGGUUAUGGCGAAUGGGACCCA [A56C A70U], the self-cleavage turned out to be 1.16.

Consider GGCCGGCAUGGUCCGAGCCUCCUCGCUGCCGCCGGCUGGGCAACAUUCCGAGGGGACCGUCCCCUCGGUAAUGGCGAAUGGGACCCA [C15G G29C], for which the self-cleavage was determined as 0.

For the variant GGCCGGCAUGGUCCCAGCCUCCUCGCUGGCGCCGGCUGGGCACCAUUCCGAGGGGACCGUCCCCUCGGUAAUGGCGAAUGGGACCUA [A43C C86U], the self-cleavage stood at 0.649.

GGUCGGCAUGGUCCCAGCCUCCUCGCUGGCGCCGGCUGGGUAACAUUCCGAGGGGACCGUCCCCUCGGUAAUGGCGAAUGGGACCCA [C3U C41U]: the self-cleavage came to 0.726.

With GGCCGGCAUGGUCUCAGCCUCCUCGCUGGCGCCGGCUGGGCAACAAUCCGAGGGGACCGUCCCCUCGGUAAUGGCGAAUGGGACCCA [C14U U46A], the self-cleavage stood at 0.554.

Regarding GGCCGGCAUGGUCCCAGCCUCCUCGCUGGCGCCGGCUGGCCAAGAUUCCGAGGGGACCGUCCCCUCGGUAAUGGCGAAUGGGACCCA [G40C C44G], the self-cleavage turned out to be 0.106.

Take GGCCGGCAUGCUCCCAGCCUCCUCGCUGGCGCCGGCUGGGCAACAUUCCGAGGGGACCGUCCCCUCGGUAAUGGCGAUUGGGACCCA [G11C A78U]: the self-cleavage turned out to be 0.0437.

With GGCCGGCAUGGUCCCAGCCUCCUCGCUGGCGCCGGCUGGGCAACAUUCCGAGCGGACCGUCCCCUCGGUACUGGCGAAUGGGACCCA [G53C A71C], the self-cleavage is 0.356.

Turning to GGCCGGCAUGGUCCCAGCCUCCUCGCUGGCGCCGGCUGGGCAACAUUCCGAGGGGCCCGUCCCCUCGGUAAUAGCGAAUGGGACCCA [A56C G73A], the self-cleavage was found to be 0.658.

Turning to GGCCGCCAUGGUCCCAGCCACCUCGCUGGCGCCGGCUGGGCAACAUUCCGAGGGGACCGUCCCCUCGGUAAUGGCGAAUGGGACCCA [G6C U20A], the self-cleavage was found to be 0.

Regarding GGCCGACAUGGUCCCACCCUCCUCGCUGGCGCCGGCUGGGCAACAUUCCGAGGGGACCGUCCCCUCGGUAAUGGCGAAUGGGACCCA [G6A G17C], the self-cleavage was found to be 0.0923.

As for GGCCGGCAUAGUCCCAGGCUCCUCGCUGGCGCCGGCUGGGCAACAUUCCGAGGGGACCGUCCCCUCGGUAAUGGCGAAUGGGACCCA [G10A C18G], the self-cleavage came out at 0.0817.

Turning to GGCAGGCAUGGUCCCAGCCUCCUCGCUGGCGCCGGCUGGGCAACAUUCCGAGGGGACCGUCGCCUCGGUAAUGGCGAAUGGGACCCA [C4A C62G], the self-cleavage was 0.

GGCCGGCAUGGUCCCAGCCUCCUCGCUGGCGCCGGCUGGGCAACGUUCCGACGGGACCGUCCCCUCGGUAAUGGCGAAUGGGACCCA [A45G G52C]: the self-cleavage came out at 1.01.

On to GGCCGGCAUGGUCCCCGCCUCCUCGCUGGCGCCGGCUGGGCAACAUUCCGAGGGGACCGUCCCCUCGGUAAUGGCGAAUGGGAGCCA [A16C C84G], for which the self-cleavage amounted to 0.87.

On to GGCCGGCAUGGUCCCAGCCUCGUCGCUGGCGCCGGCUGGACAACAUUCCGAGGGGACCGUCCCCUCGGUAAUGGCGAAUGGGACCCA [C22G G40A], for which the self-cleavage was found to be 0.

For the variant GGCCGGCAUGGUCCCAGCCUCCUCGCUGGCGGCGGCUGGGCAACAUUCCGGGGGGACCGUCCCCUCGGUAAUGGCGAAUGGGACCCA [C32G A51G], the self-cleavage is 0.0665.

Regarding GGCCGGCAUGGUCCCAGCCUCCUCGCUGGCGCCGGCUGGGCAACAUUCCGAGGGUACCGUCCCCUCGGUAACGGCGAAUGGGACCCA [G55U U72C], the self-cleavage came out at 0.703.

For GGCCGGCAUCGUCCCAGCCUCCUCGCUGGCGCCGGCUGGGCAACAUUCCGAGGGGACCGUCCCCUCGGUAAUGGCGAAUGGGAACCA [G10C C84A], the self-cleavage was 0.705.

As to GGCCGGCAUGGUCCCAGCCUCCUCGCUGGCGCCUGCUGGGCAACAUUCCGAGGGGACCGUCCCCUCGGUAAUGGCAAAUGGGACCCA [G34U G76A], the self-cleavage amounted to 0.231.

With GGCCGGCAUGGUCCCAGCCUGCUCGCUGGCGCCGGCUGGGCAACAUUCCGAGGGGACCGUCCCCUUGGUAAUGGCGAAUGGGACCCA [C21G C66U], the self-cleavage is 0.0475.

(Values after the RNAGym collection of RNA variant scans (doi:10.7554/elife.80360).)
